{"source": "paper doi:10.1101/749432", "about": "(2019)", "binders": {"B1": {"name": "endothelial protein C receptor (EPCR), residues 16 to 210, biotinylated on the BAP tag (receptor)", "chain": "FCSQDASDGLQRLHMLQISYFRDPYHVWYQGNASLGGHLTHVLEGPDTNTTIIQLQPLQEPESWARTQSGLQSYLLQFHGLVRLVHQERTLAFPLTIRCFLGCELPPEGSRAHVFFEVAVNGSSFVSFRPERALWQADTQVTSGVVTFTLQQLNAYNRTRYELREFLEDTCVQYVQKHISAENTKGSQTSRSYTS"}}, "key": {"[1]": {"molecular_target": "B1", "test": "SPR"}, "[2]": {"molecular_target": "HB3var03 CIDRα1.4 domain (E. coli, refolded) (Plasmodium falciparum)", "test": "SPR; wild type, data from ref. 8"}}}
{"binder": "synthetic binder (cys2 variant of design 469) (designed binder, biotin on the BAP tag (BirA)) NNWEQQKKNIEDDLDRYKKRAEELRKEAEKARKEARKTEDPTEEAKKEWEKRCKELEERARKLEDEAKDRVNDLFDSNFFQVIYSGDNDEEEWKKEKDRAEKEIEEWFKRIKEKCEEIKKRLEQ", "values": [{"measurement": "koff", "setting": "[1]", "result": 0.000131, "unit": "s⁻¹"}]}
{"binder": "B1", "values": [{"measurement": "Kd", "setting": "[2]", "result": 0.4, "unit": "nM"}, {"measurement": "koff", "setting": "[2]", "result": 0.000197, "unit": "s⁻¹"}]}
